For the test, the target named is T1, 6xHis-EYA2 ED (human EYA2 residues 253-538) (human, UniProt O00167 253-538).
T1 sequence (looked up): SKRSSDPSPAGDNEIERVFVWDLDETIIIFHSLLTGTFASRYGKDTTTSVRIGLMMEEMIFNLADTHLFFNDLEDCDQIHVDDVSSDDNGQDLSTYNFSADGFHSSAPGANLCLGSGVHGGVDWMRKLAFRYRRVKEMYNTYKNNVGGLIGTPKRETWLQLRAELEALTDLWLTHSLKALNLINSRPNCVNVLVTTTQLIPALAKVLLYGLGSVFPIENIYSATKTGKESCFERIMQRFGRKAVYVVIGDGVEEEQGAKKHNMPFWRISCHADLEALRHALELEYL
Briefly: AlphaScreen or HTRF.

B1: GST-SIX1 (human SIX1 residues 1-259) (domain or fragment, UniProt Q15475 1-259, looked up)
chain: MSMLPSFGFTQEQVACVCEVLQQGGNLERLGRFLWSLPACDHLHKNESVLKAKAVVAFHRGNFRELYKILESHQFSPHNHPKLQQLWLKAHYVEAEKLRGRPLGAVGKYRVRRKFPLPRTIWDGEETSYCFKEKSRGVLREWYAHNPYPSPREKRELAEATGLTTTQVSNWFKNRRQRDRAAEAKERENTENNNSSSNKQNQLSPLEGGKPLMSSSEEEFSPPQSPDQNSVLLLQGNMGHARSSNYSLPGLTASQPSHG
For the molecule B1, the binding result is given as “binds”.

Source of the values: paper PMC7510951 (Cancer research, 2020).
